From article PMC6349404, “Integrin alpha11 is an Osteolectin receptor and is required for the maintenance of adult skeletal bone mass” (eLife, 2019)

Legend:
Assay in all cases: ELISA; microtiter well binding assay; plates coated with 10 nM recombinant human Osteolectin, Pro-Collagen 1α or BSA overnight at 4°C, blocked with 10 mg/ml BSA; 6xHis tagged integrins in TBS (50 mM Tris-Cl pH 7.5, 150 mM NaCl) with 1 mM MnCl2; bound integrin detected with anti-His tag antibody and HRP secondary, OD 450 nm
Settings in all cases: both partners purified
[1] = target: recombinant human integrin αMβ2 (human, UniProt P11215 17-1104; P05107 23-700)
[2] = target: T1, recombinant human integrin α9β1 (human, UniProt Q13797 30-981; P05556 21-728)
T1 construct: integrin α9, human, chain of the recombinant heterodimer; integrin β1, human, chain of the recombinant heterodimer; source: bought: R and D Systems
T1 sequence (Q13797 30-981, chain 1 of 2): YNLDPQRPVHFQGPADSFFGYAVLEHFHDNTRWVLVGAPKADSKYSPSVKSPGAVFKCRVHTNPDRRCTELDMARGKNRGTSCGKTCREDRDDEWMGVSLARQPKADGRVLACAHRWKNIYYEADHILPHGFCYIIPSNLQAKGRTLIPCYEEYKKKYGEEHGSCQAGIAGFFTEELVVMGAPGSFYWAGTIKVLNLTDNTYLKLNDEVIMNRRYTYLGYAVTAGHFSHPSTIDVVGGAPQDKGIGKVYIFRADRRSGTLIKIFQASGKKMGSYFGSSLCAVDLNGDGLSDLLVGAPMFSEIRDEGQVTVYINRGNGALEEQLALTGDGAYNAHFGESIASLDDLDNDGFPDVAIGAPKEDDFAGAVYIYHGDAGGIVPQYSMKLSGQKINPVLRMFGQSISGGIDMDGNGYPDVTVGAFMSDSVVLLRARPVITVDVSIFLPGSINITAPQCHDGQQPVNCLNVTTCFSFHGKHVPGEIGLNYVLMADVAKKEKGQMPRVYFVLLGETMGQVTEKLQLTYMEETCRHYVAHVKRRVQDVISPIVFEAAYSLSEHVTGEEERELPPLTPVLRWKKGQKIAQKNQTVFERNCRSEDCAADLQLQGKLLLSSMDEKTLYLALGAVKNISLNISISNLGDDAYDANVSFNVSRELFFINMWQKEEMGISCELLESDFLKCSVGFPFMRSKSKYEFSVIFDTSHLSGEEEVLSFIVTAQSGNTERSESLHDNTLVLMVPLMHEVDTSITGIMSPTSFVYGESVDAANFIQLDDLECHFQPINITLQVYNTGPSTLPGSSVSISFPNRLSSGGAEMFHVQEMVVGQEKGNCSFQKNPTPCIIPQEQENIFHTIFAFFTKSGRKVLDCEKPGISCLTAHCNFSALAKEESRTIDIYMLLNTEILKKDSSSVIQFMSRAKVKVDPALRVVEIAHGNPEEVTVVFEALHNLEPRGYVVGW
T1 sequence (P05556 21-728, chain 2 of 2): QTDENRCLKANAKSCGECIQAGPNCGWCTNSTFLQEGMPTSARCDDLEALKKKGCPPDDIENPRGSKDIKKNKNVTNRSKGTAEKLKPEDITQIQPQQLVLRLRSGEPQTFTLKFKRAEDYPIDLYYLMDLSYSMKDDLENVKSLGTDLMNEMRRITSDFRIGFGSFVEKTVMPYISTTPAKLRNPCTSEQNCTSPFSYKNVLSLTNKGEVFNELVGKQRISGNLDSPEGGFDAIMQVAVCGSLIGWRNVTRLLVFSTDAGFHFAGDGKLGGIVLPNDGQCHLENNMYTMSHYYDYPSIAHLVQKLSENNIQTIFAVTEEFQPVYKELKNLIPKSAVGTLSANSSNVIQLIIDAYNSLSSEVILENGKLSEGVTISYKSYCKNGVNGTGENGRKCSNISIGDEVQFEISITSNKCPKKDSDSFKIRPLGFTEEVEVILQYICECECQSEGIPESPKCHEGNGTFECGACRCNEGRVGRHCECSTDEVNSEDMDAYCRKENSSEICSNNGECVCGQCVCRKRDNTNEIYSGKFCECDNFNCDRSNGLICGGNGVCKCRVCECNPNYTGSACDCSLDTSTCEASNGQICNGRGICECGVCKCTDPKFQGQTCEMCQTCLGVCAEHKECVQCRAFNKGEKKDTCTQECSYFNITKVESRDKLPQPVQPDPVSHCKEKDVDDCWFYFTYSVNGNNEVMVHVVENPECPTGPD

[3] = target: T2, recombinant human integrin α11β1 (human, UniProt Q9UKX5 23-1141; P05556 21-728)
T2 construct: integrin α11, human, chain of the recombinant heterodimer; integrin β1, human, chain of the recombinant heterodimer; also called α11β1 integrin; source: bought: R and D Systems
T2 sequence (Q9UKX5 23-1141, chain 1 of 2): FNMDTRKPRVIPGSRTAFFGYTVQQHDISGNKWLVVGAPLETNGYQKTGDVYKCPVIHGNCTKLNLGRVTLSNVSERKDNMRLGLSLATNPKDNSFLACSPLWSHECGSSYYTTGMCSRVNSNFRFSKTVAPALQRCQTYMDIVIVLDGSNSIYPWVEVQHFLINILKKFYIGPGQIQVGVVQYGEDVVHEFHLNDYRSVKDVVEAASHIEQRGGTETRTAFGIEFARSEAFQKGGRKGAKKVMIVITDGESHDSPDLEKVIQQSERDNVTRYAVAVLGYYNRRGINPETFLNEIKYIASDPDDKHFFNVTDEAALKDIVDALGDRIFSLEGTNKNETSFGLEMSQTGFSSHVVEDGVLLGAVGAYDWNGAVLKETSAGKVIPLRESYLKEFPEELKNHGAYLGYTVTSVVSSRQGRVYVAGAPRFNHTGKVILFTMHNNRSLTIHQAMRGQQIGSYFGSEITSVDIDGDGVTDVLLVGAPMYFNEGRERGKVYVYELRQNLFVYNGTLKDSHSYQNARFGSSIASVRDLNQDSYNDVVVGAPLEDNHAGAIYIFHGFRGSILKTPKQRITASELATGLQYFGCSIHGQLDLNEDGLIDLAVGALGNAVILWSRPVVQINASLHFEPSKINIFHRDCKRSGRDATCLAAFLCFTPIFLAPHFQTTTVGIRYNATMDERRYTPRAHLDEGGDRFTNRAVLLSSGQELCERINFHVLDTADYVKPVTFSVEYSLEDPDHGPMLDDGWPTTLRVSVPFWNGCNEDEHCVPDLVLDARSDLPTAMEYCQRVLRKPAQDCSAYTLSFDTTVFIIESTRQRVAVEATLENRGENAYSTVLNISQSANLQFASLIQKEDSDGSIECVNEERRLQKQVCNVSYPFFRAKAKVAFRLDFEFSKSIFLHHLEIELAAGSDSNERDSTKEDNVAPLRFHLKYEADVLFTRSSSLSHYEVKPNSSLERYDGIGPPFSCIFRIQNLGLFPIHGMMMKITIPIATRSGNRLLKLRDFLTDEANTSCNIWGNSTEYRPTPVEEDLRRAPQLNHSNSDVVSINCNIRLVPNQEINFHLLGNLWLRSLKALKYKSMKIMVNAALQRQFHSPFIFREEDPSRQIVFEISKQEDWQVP
T2 sequence (P05556 21-728, chain 2 of 2): as the sequence (P05556 21-728, chain 2 of 2) above

[4] = target: T3, recombinant human integrin α4β1 (human, UniProt P13612 35-977; P05556 21-728)
T3 construct: integrin α4, human, chain of the recombinant heterodimer; integrin β1, human, chain of the recombinant heterodimer; source: bought: R and D Systems
T3 sequence (P13612 35-977, chain 1 of 2): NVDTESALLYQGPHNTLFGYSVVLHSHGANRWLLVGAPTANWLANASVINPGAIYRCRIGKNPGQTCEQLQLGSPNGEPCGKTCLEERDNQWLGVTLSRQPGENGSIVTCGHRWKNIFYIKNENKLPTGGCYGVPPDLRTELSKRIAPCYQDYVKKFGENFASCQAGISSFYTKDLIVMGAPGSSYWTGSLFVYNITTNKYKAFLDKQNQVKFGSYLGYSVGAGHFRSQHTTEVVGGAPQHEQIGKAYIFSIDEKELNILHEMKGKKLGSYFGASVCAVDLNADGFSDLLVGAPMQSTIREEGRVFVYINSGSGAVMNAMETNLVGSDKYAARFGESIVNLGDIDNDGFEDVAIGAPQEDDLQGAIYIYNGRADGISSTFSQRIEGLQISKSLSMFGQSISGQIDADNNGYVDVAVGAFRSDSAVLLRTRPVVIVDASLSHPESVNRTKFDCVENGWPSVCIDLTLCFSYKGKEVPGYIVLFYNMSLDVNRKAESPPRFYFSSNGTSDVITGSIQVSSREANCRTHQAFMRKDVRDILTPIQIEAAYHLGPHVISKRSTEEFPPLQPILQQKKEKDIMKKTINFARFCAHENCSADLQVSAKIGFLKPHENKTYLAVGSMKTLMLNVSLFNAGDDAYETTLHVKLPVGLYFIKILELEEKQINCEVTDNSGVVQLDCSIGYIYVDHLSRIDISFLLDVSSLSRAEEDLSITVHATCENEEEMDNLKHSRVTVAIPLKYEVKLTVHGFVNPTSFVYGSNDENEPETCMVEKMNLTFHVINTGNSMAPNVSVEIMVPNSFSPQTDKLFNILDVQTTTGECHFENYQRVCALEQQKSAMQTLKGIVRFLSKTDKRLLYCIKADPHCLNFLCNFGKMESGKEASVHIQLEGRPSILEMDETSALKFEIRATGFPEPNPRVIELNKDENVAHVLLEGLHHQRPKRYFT
T3 sequence (P05556 21-728, chain 2 of 2): as the sequence (P05556 21-728, chain 2 of 2) above

[5] = target: T4, recombinant human integrin α10β1 (human, UniProt O75578 23-1122; P05556 21-728)
T4 construct: integrin α10, human, chain of the recombinant heterodimer; integrin β1, human, chain of the recombinant heterodimer; source: bought: R and D Systems
T4 sequence (O75578 23-1122, chain 1 of 2): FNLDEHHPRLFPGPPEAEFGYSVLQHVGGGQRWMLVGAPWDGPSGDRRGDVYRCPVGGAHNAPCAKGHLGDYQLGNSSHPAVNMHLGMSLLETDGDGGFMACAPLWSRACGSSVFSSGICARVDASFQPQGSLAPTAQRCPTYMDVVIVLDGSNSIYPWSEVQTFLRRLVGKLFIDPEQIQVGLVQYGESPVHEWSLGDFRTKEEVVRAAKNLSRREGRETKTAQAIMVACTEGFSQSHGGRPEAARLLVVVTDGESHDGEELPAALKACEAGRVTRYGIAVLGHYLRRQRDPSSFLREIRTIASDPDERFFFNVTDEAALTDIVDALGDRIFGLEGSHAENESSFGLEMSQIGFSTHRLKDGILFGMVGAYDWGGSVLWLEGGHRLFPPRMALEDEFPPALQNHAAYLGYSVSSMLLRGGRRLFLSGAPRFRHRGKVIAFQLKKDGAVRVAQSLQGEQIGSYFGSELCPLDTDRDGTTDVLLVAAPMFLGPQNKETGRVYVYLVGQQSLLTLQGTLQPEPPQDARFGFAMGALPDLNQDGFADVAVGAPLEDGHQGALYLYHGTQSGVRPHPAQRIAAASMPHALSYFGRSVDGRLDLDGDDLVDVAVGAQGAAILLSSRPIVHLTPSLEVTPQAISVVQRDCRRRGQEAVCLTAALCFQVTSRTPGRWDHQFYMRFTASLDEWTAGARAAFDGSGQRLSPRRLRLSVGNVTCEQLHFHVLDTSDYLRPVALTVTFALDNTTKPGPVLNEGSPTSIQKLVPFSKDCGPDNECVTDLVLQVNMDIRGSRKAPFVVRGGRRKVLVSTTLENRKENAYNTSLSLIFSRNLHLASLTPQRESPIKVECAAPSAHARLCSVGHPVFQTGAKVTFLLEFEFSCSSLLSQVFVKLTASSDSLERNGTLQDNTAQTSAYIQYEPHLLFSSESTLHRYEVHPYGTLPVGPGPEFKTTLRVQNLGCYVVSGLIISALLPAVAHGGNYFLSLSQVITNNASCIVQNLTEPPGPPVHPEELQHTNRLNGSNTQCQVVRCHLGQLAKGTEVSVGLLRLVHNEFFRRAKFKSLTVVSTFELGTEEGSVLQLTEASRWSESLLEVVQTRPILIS
T4 sequence (P05556 21-728, chain 2 of 2): as the sequence (P05556 21-728, chain 2 of 2) above

Kd [1]: > 100 nM | Kd [2]: > 100 nM | Kd [3]: 0.3 nM | Kd [4]: > 100 nM | Kd [5]: 0.3 nM
B1: recombinant human Osteolectin (ligand, UniProt Q9Y240 22-323, looked up)
chain: ARGAEREWEGGWGGAQEEEREREALMLKHLQEALGLPAGRGDENPAGTVEGKEDWEMEEDQGEEEEEEATPTPSSGPSPSPTPEDIVTYILGRLAGLDAGLHQLHVRLHALDTRVVELTQGLRQLRNAAGDTRDAVQALQEAQGRAEREHGRLEGCLKGLRLGHKCFLLSRDFEAQAAAQARCTARGGSLAQPADRQQMEALTRYLRAALAPYNWPVWLGVHDRRAEGLYLFENGQRVSFFAWHRSPRPELGAQPSASPHPLSPDQPNGGTLENCVAQASDDGSWWDHDCQRRLYYVCEFPF
notes: Osteolectin/Clec11a, human; cDNA cloned into pcDNA3 with a C-terminal 1XFlag-tag; secreted into the culture medium; also called rhOln; Clec11a
